The source of these data is the Immune Epitope Database (IEDB).

A word on the Kd: it is the equilibrium constant for the complex coming apart. A higher Kd goes with lower affinity.

In test [1] the target is HLA-A*01:01. The test can be described thus: IEDB peptide-MHC binding, purified MHC/competitive/fluorescence; filed as Kd, often an IC50 or EC50 that approximates it; ≥ and ≤ were set here for values at or beyond the usual limits of such assays. Particulars: source organism: Staphylococcus aureus subsp. aureus N315.
Test [2] addresses HLA-A*29:02. The description is as above. Particulars: source organism: Staphylococcus aureus subsp. aureus N315.
The target of test [3] is HLA-A*32:07. The test is described as above. Particulars: source organism: Staphylococcus aureus subsp. aureus N315.
Test [4] has as its target HLA-A*32:15. The description is as above. Particulars: source organism: Staphylococcus aureus subsp. aureus N315.
The target of test [5] is HLA-B*15:42. The test is described as above. Particulars: source organism: Staphylococcus aureus subsp. aureus N315.
Test [6] has as its target HLA-B*45:06. The test is described as above. Particulars: source organism: Staphylococcus aureus subsp. aureus N315.
Test [7] addresses HLA-C*07:02. Kind of test: IEDB peptide-MHC binding, purified MHC/direct/fluorescence; filed as Kd, often an IC50 or EC50 that approximates it; ≥ and ≤ were set here for values at or beyond the usual limits of such assays.
The target in test [8] is HLA-A*02:01. Kind of test: IEDB peptide-MHC binding, purified MHC/competitive/fluorescence; filed as Kd, often an IC50 or EC50 that approximates it; ≥ and ≤ were set here for values at or beyond the usual limits of such assays. The settings on record: source organism: Human immunodeficiency virus 1.
The target in test [9] is HLA-A*02:03. Described as above.
In test [10] the target is HLA-A*02:06. Described as above.
In test [11] the target is HLA-A*26:02. The description is as above.
The target of test [12] is HLA-B*15:17. Described as above.
Test [13] addresses HLA-B*35:01. The description is as above. The settings on record: source organism: Human immunodeficiency virus 1.
The target of test [14] is HLA-A*26:03. The test is described as above.
The target of test [15] is HLA-A*30:01. Described as above. Particulars: source organism: Homo sapiens.
Test [16] deals with HLA-B*08:01. The test is described as above. Particulars: source organism: Homo sapiens.
Test [17] concerns the target HLA-B*15:01. The test is described as above.
For test [18], the target named is HLA-B*18:01. The test is described as above. The settings on record: source organism: Homo sapiens.
Test [19] addresses HLA-B*39:01. Described as above.
The target of test [20] is HLA-A*01:01. Kind of test: IEDB peptide-MHC binding, purified MHC/direct/fluorescence; filed as Kd, often an IC50 or EC50 that approximates it; ≥ and ≤ were set here for values at or beyond the usual limits of such assays. Particulars: source organism: Marburg virus - Musoke, Kenya, 1980.
For test [21], the target named is HLA-A*11:01. The description is as above. The settings on record: source organism: Marburg virus - Musoke, Kenya, 1980.
The target of test [22] is HLA-A*31:01. The test is described as above. Particulars: source organism: Marburg virus - Musoke, Kenya, 1980.
The target in test [23] is HLA-A*68:02. The test is described as above. Particulars: source organism: Marburg virus - Musoke, Kenya, 1980.
Test [24] deals with HLA-A*69:01. The test is described as above. The settings on record: source organism: Marburg virus - Musoke, Kenya, 1980.
Test [25] concerns the target HLA-B*07:02. The description is as above. Particulars: source organism: Marburg virus - Musoke, Kenya, 1980.
The target of test [26] is HLA-B*08:02. The description is as above. Particulars: source organism: Ravn virus - Ravn, Kenya, 1987.
Test [27] has as its target HLA-B*15:09. Described as above. The settings on record: source organism: Ravn virus - Ravn, Kenya, 1987.
Test [28] addresses HLA-B*18:01. The description is as above. The settings on record: source organism: Marburg virus - Musoke, Kenya, 1980.
For test [29], the target named is HLA-B*27:05. The description is as above. The settings on record: source organism: Marburg virus - Musoke, Kenya, 1980.
Test [30] addresses HLA-B*48:01. The description is as above. The settings on record: source organism: Marburg virus - Musoke, Kenya, 1980.
The target of test [31] is HLA-B*57:01. The test is described as above. The settings on record: source organism: Marburg virus - Musoke, Kenya, 1980.
For test [32], the target named is HLA-B*58:01. The description is as above. Particulars: source organism: Marburg virus - Musoke, Kenya, 1980.
The target of test [33] is HLA-B*73:01. The description is as above. Particulars: source organism: Marburg virus - Musoke, Kenya, 1980.
The target of test [34] is HLA-A*26:01. Kind of test: IEDB peptide-MHC binding, purified MHC/competitive/fluorescence; filed as Kd, often an IC50 or EC50 that approximates it; ≥ and ≤ were set here for values at or beyond the usual limits of such assays. Particulars: source organism: Orthomarburgvirus marburgense.
Test [35] addresses HLA-A*24:02. The test is described as above.
Test [36] deals with HLA-C*06:02. The test can be described thus: IEDB peptide-MHC binding, purified MHC/direct/fluorescence; filed as Kd, often an IC50 or EC50 that approximates it; ≥ and ≤ were set here for values at or beyond the usual limits of such assays. Particulars: source organism: Rickettsia felis URRWXCal2.
In test [37] the target is HLA-C*14:02. The description is as above. The settings on record: source organism: Rickettsia felis URRWXCal2.
Test [38] deals with HLA-C*15:02. Described as above. The settings on record: source organism: Rickettsia felis URRWXCal2.
Where [39] appears, read: source organism: Human immunodeficiency virus 1.
[40] abbreviates: source organism: Orthomarburgvirus marburgense.

With MVIKWIHER, the equilibrium dissociation constant (Kd) in test [1] was 17 µM; in [2], 0.548 µM; in [3], 0.203 µM; in [4], 0.0525 µM; in test [5], at least 5 µM; in test [6] it was at least 5 µM.
As for LYNTIAVLY, the Kd in [7] (setting [39]) was 2.13 µM; in [8], 2.32 µM; in test [9] (setting [39]), 0.721 µM; in test [10] (setting [39]) it was 0.759 µM; in [11] (setting [39]) it was at least 20 µM; in test [12] (setting [39]), at least 20 µM. Moreover, the Kd in test [13] worked out at 1.87 µM.
With FRHSVVVPY, the Kd was at most 0.001 µM in test [7] (source organism: Homo sapiens); at least 20 µM in [9] (source organism: Homo sapiens); at least 20 µM in test [10] (source organism: Homo sapiens); at least 20 µM in test [11] (source organism: Homo sapiens); at least 20 µM in test [14] (source organism: Homo sapiens); 4.08 µM in [15]. Further, the Kd is at least 20 µM in [16], 0.315 µM in [17] (source organism: Homo sapiens), 0.477 µM in test [18] and at least 20 µM in test [19] (source organism: Homo sapiens).
As to ARHGEYAPF, the Kd in [20], in test [21], in test [22], in [23], in test [24] and in test [25] was at least 20 µM throughout. The Kd in test [26] is at least 20 µM; in test [27], at least 20 µM; in test [28], at least 20 µM; in test [29] it was 0.168 µM; in test [30], at least 20 µM; in [31], at least 20 µM. Also, the Kd was at least 20 µM in [32]; at least 20 µM in test [33]; 4 µM in test [34]; 0.738 µM in test [11] (setting [40]); at least 20 µM in test [14] (setting [40]); 3.34 µM in test [17] (setting [40]). For the same sequence, the Kd in test [12] (setting [40]) was at least 20 µM; in test [19] (setting [40]), 1.09 µM.
As for EYLRIPLTI, the Kd in test [35] (source organism: Entamoeba histolytica HM-1:IMSS) is at most 0.0001 µM.
Consider RWLPLVSLF, for which the Kd in test [36] is at least 20 µM; in test [37], 0.399 µM; in test [38], at least 20 µM; in test [35] (source organism: Rickettsia felis URRWXCal2) it was at most 0.0001 µM.
